Measured values from US20220348651A1, “ENTPD2 ANTIBODIES, COMBINATION THERAPIES, AND METHODS OF USING THE ANTIBODIES AND COMBINATION THERAPIES” (Novartis AG, priority 2019, published 2022).

T1: RKO cells (Homo sapiens, UniProt Q9Y5L3)
T1 construct: colorectal cancer cells with endogenous ENTPD2 expression; host or cells: RKO
T1 sequence (Q9Y5L3 1-495): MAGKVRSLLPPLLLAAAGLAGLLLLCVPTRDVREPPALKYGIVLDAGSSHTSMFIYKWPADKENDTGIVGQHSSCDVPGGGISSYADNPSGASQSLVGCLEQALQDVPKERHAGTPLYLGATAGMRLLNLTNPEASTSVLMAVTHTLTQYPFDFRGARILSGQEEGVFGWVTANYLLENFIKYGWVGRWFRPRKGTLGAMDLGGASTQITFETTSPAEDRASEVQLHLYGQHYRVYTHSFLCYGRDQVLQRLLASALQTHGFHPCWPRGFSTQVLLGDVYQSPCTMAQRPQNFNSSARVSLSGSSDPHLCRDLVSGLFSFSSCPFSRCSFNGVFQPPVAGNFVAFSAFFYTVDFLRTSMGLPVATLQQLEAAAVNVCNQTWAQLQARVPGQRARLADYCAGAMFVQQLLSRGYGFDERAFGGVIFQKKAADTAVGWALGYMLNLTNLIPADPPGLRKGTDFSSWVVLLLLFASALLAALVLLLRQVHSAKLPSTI

B1: mAb13: anti-mouse ENTPD2 antibody; HC SEQ ID NO: 193, LC SEQ ID NO: 204 (antibody)
heavy: QVQLVQSGAELKQPGQSVKISCKASGYTFTHYGMNWVKQAPGQGLKWMGWINTDTGNPTYADDFKGRFVFSLDTSVSTAYLQISNLKNEDTATYYCVRYGTLYSGYGFFFDSWGQGTLVTVSSAKTTAPSVYPLAPVCGDTTGSSVTLGCLVKGYFPEPVTLTWNSGSLSSGVHTFPAVLQSDLYTLSSSVTVTSSTWPSQSITCNVAHPASSTKVDKKIEPRGPTIKPCPPCKCPAPNLLGGPSVFIFPPKIKDVLMISLSPIVTCVVVDVSEDDPDVQISWFVNNVEVHTAQTQTHREDYNSTLRVVSALPIQHQDWMSGKEFKCKVNNKDLPAPIERTISKPKGSVRAPQVYVLPPPEEEMTKKQVTLTCMVTDFMPEDIYVEWTNNGKTELNYKNTEPVLDSDGSYFMYSKLRVEKKNWVERNSYSCSVVHEGLHNHHTTKSFSRTPGK
light: DIMMTQSPSSLSVSAGEKATITCKSSQSLFNSNTNKNYLNWYLQKPGQSPKLLFYYASTRHTGVPDRFIGSGSGTDFTLTITSVQDEDLADYYCQQWYSYPWTFGPGTKLEIKRADAAPTVSIFPPSSEQLTSGGASVVCFLNNFYPKDINVKWKIDGSERQNGVLNSWTDQDSKDSTYSMSSTLTLTKDEYERHNSYTCEATHKTSTSPIVKSFNRNEC
B2: mAb7: humanized anti-human ENTPD2 antibody from mAb17; VH SEQ ID NO: 25, VL SEQ ID NO: 78 (antibody, V domains shown)
VH: QVQLVQSGAEVVKPGASVKISCKASGYTFTDYNMDWVKQAPGQRLEWIGDINPKYDISTYNQQFKGKATITVDKSASTAYMELSSLRSEDTAVYYCARRGFFLYYGINYYYFDVWGQGTLVTVSS
VL: EIVLTQSPATLSASPGEEITLSCSASSSVSYIHWYQQKPGQAPRLLIYSTSNLASGIPARFSGSGSGTFYTLTISSVEPEDAAVYYCHQWSSYPWTFGGGTKLEIK

Columns and labels:
[1] = tested on: B16LM3 tumor model; assay: Syngeneic B16LM3 tumor model, combination with anti-PD-1 Ab; assay type: in vivo, C57BL/6 mice; settings: mAb13 15 mg/kg in combination with anti-PD-1 Ab 10 mg/kg i.p., days 1, 5, 8, 12, 15; relative to No Treatment, Isotype Control or anti-PD-1 Ab
Experimental: B16LM3 model was established in female C57BL/6 mice by subcutaneous injection of 0.5×10^6 cells into the right flank of each mouse. The day after implant mice were randomized into treatment groups (n=10 per group). Mice received treatments of either anti-mouse ENTPD2 mAb13 or a non-specific mIgG2a isotype control (clone MOPC-173, BioLegend, San Diego, Calif.) at a final dose 15 mg/kg on Day 1, 5, 8, 12, 15.
Anti-PD-1 Ab (clone RMP1-14 Bio X Cell, West Lebanon, N.H.) or non-specific rIgG2a isotype control (clone RTK2758, BioLegend, San Diego, Calif.) were delivered i.p. at a final dose of 10 mg/kg on days 1, 5, 8, 12, 15. All doses were adjusted to individual mouse body weights.

[2] = tested on: B16F10 tumor model; assay: Syngeneic B16F10 tumor model, combination with anti-PD-1 Ab; tumor T cell influx by flow cytometry; assay type: in vivo, C57BL/6 mice
Experimental: B16F10 model was established in female C57BL/6 mice by subcutaneous injection of 0.5×10^6 cells into the right flank of each mouse. On day 7 once tumors reached approximately 30 mm^3, mice were randomized according to tumor volume into treatment groups (n=10 per group). Mice received treatment of either anti-mouse ENTPD2 mAb13 at a final dose 15 mg/kg, anti-PD-1 Ab (clone RMP1-14 Bio X Cell, West Lebanon, N.H.) i.p. at a final dose of 10 mg/kg or the combination of both treatments on days 1, 5, and 8. All doses were adjusted to individual mouse body weights.
In order to understand the impact of treatments on the tumor microenvironment, mice were euthanized on day 8 and tumors were dissociated in HyClone RPMI1640 media (GE Healthcare, Pittsburg, Pa.) using gentleMacs C-tubes (Miltenyi Biotec, Auburn, Calif.) on the gentleMacs Octo Dissociator (Miltenyi Biotec, Auburn, Calif.). Approximately 2×10^6 dissociated tumor cells were blocked with rat anti-mouse CD16/CD32 Ab (Biolegend, San Diego, Calif.) to reduce non-specific FcγRIII/II binding and subsequently stained with the following cocktail of Abs: rat anti-mouse CD45-BUV395 (clone 30-F11) (BD Biosciences, San Jose, Calif.), rat anti-mouse CD8a-BUV737 (clone 53-6.7) (BD Biosciences, San Jose, Calif.), rat anti-mouse CD4-BV510 (clone RM4-5) (BD Bioscience, San Jose, Calif.), anti-mouse CD69-PercPCy5.5 (clone H1-2F3) (Biolegend, San Diego, Calif.) and rat anti-mouse CD25-eFluor450 (clone eBio3C7) (eBioscience, San Diego, Calif.) at the manufacturers' recommended dilutions. All incubations and washes were performed in FACS Buffer composed of 1× HyClone Phosphate Buffered Saline (GE Healthcare, Pittsburg, PA), 1% HyClone Fetal Bovine Serum (GE Healthcare, Pittsburg, Pa.), 2 mM EDTA (ThermoFisher, Waltham Mass.). After staining with the cell surface antigen antibody cocktail, dissociated tumor cells were washed in FACS buffer, fixed and permeabilized using the eBioscience Foxp3/Transcription Factor Staining Buffer Kit (ThermoFisher, Waltham Mass.) to allow for intracellular staining with the mouse anti-mouse FOXP3-eFluor660 (clone 150D/E4) (eBioscience, San Diego, Calif.).

[3] = tested on: H520 cells; assay: Cross reactivity: FACS binding to H520 cells (ENTPD3 and ENTPD8 expression); design: species or system human; settings: 50 nM antibody
Experimental: (§1) FACS screening: Specific binding of candidate antibodies to endogenously expressed ENTPD2 was assessed by flow cytometry. Cells were rinsed thoroughly with 1×PBS and treated with Accutase (Millipore #SCR005) to lift from growth plates and resuspended at approximately 1×10^5 cells/90 μL in 1× FACS buffer (2% FBS+0.1% NaN3 in PBS). In a 96-well U-bottom plate, 10 μL of 10× antibody solution in FACS buffer was pre-seeded and 90 μL of cell suspension was added. Cell were incubated for 30 minutes at 4° C., washed 1× with cold PBS and resuspended in 100 μL of 1:500 secondary antibody 1× FACS buffer (Allophycocyanin conjugated F(ab′)2 goat anti-human IgG, Fcγ specific; Jackson Immunoresearch, Cat#109-136-098). After additional incubation for 15 min at 4° C., cells were washed twice with PBS and resuspended in 100 μL of 1×FACS buffer with 4 μg/mL propidium iodide (Life Technologies, Cat#P3566). Geometric mean fluorescence intensity was calculated on live single cells using FlowJo software.
H520 cells were identified as a cancer cell line with ENTPD3 (Ct 25) and ENTPD8 (Ct 26) expression by Taqman and were used for selectivity screening.

[4] = molecular target: T1, RKO cells; assay: FACS binding to RKO cells with endogenous ENTPD2; settings: read-out: Apparent FACS Affinity
Experimental: as §1

[5] = combination with anti-PD-1 Ab, tumor, day 8

Molecule | mouse survival [1] | anti-tumor efficacy ([2]; alone, mAb13 15 mg/kg, anti-PD-1 Ab 10 mg/kg i.p., days 1, 5, 8) | tumor growth relative to No Treatment control ([2]; combination of mAb13 15 mg/kg and anti-PD-1 Ab 10 mg/kg) | influx of activated CD4 T-helper cells (CD45+ CD8-CD4+ FOXP3-CD69+ CD25+), increase vs No Treatment [2, 5] | influx of activated CD8 T cells (CD45+ CD4-CD8+ CD69+ CD25+), change vs No Treatment [2, 5] | Apparent FACS binding at 50 nM [3] | EC50 [4] [nM]
B1 | significantly extended mouse survival | No significant anti-tumor efficacy | significant reduction in tumor growth | 7.0 -fold | 5.8 -fold | – | –
B2 | – | – | – | – | – | No binding | 0.4
